Test results as given in article PMC8834437, “Physical Interaction between Embryonic Stem Cell-Expressed Ras (ERas) and Arginase-1 in Quiescent Hepatic Stellate Cells” (Cells, 2022).
Blank lines part the entries; values can stand above or below the binder they belong to.

Legend:
[1] = molecular target: T1, purified arginase 1 (ARG1; aa 1-322) (UniProt P05089 1-322); test: pull-down; GST-fusion proteins immobilized on GSH agarose beads, mixed with purified ARG1, 1 h at 4 °C; conditions: both partners purified
T1 construct: Arginase 1 (ARG1), P05089, aa 1-322; Named MBP-ARG1 only for the SPR; also called MBP-ARG1; purified ARG1
T1 sequence (looked up): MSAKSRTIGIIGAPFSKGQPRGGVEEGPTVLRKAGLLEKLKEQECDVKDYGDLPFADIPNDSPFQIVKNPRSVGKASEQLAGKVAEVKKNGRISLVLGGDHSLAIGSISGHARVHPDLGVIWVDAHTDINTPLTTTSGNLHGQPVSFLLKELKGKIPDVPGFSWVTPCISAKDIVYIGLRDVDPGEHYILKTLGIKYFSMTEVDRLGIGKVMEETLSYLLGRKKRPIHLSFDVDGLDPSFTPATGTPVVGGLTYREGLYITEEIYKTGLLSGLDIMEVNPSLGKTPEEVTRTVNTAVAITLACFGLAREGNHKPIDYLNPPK

[2] = molecular target: T1, purified arginase 1 (ARG1; aa 1-322); test: SPR; Biacore X100, CM5 chip, GST-hsNex (10 µM) captured by immobilized anti-GST antibody, MBP-ARG1 0.5-20 µM injected, 25 °C, 10 mM HEPES pH 7.4, 150 mM NaCl, 0.05% P20, Langmuir 1:1 model; conditions: both partners purified

binding result [1]: binds
B2: GST-rnFL (rat ERas full length, aa 1-227) (natural protein, UniProt D3ZTE4 1-227, looked up)
chain: MALPTKSSILDLSPGTQCSRSPEESHEAWAQCKDAGRQLPEYKAVVVGASGVGKSALTIQMTHHCFVKDHDPTIQDSYWKEVALDNGGYILNVLDTAGQDSHRALRDQCLAAGDGVLGVFALDDPSSLDQLQQICSTWNPHHKQPLVLVGNKSDLVSSAGDAHTAAAVLAHKLGAPLVKTSAKTRQGVEEAFALLVHEIQRAQEAVAESSKKTRHHKAVCSCGCSVA
notes: Embryonic stem cell-expressed Ras (ERas), rat, D3ZTE4, FL aa 1-227; also called GST-FL of rat ERas

binding result [1]: binds
B3: GST-hsFL (human ERas full length, aa 1-233) (natural protein, UniProt Q7Z444 1-233, looked up)
chain: MELPTKPGTFDLGLATWSPSFQGETHRAQARRRDVGRQLPEYKAVVVGASGVGKSALTIQLNHQCFVEDHDPTIQDSYWKELTLDSGDCILNVLDTAGQAIHRALRDQCLAVCDGVLGVFALDDPSSLIQLQQIWATWGPHPAQPLVLVGNKCDLVTTAGDAHAAAAALAHSWGAHFVETSAKTRQGVEEAFSLLVHEIQRVQEAMAKEPMARSCREKTRHQKATCHCGCSVA
notes: Embryonic stem cell-expressed Ras (ERas), human, Q7Z444, FL aa 1-233; also called ERas hsFL; GST-FL of human ERas

The remaining lines, values behind:

B1: GST-rnNex (rat ERas N-terminal extension, aa 1-38) (domain or fragment, UniProt D3ZTE4 1-38, looked up)
chain: MALPTKSSILDLSPGTQCSRSPEESHEAWAQCKDAGRQ
notes: Embryonic stem cell-expressed Ras (ERas), rat, D3ZTE4, N-terminal extension (Nex) aa 1-38; also called ERas rnNex; GST-Nex of rat ERas
binding result [1]: binds

B4: GST-hsNex (human ERas N-terminal extension, aa 1-38) (domain or fragment, UniProt Q7Z444 1-38, looked up)
chain: MELPTKPGTFDLGLATWSPSFQGETHRAQARRRDVGRQ
notes: Embryonic stem cell-expressed Ras (ERas), human, Q7Z444, N-terminal extension (Nex) aa 1-38; Cloned into pMal-c5X-His or pGEX-4T1-N-TEV; used as GST fusion; also called ERas hsNex; GST-Nex of human ERas
Kd [2]: 2.1 µM
